Results: article PMC4133393

Target: (his)6CfaB, mature CfaB (residues 24–170) with N-terminal hexahistidine tag (enterotoxigenic E. coli (ETEC)) (UniProt E3PPC4)
Experiment: pull-down

Chain of UniProt E3PPC4 (E3PPC4 24-170): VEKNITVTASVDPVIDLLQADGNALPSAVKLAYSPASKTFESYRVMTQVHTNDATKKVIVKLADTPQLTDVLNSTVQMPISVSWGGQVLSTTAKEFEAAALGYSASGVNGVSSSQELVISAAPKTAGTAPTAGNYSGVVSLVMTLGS

| Substance | CfaA/CfaB ratio |
| --- | --- |
| CfaA (20–238) K9A (natural protein) | 0.64 |
| CfaA (20–238), wild type, untagged (pETDuet-1-cfaA) (natural protein) | 0.66 |
